This is an account of results in patent US20230265217A1 (TWIST BIOSCIENCE, published 2023).

Test [1] deals with T1, Antibody 178-09_His B.1.1.7 (27080) (SARS-CoV-2, UniProt P0DTC2 14-685).
T1 construct: domain: S1; also called TB178-9
The test can be described thus: Carterra SPR.

The target in test [2] is T2, Antibody 178-10_His CA_W152C_L452R_D614G (27081) (SARS-CoV-2, UniProt P0DTC2 14-685).
T2 construct: domain: S1; also called CA variant S1; California variant S1
In words: Carterra SPR.

Test [3] has as its target T3, S1 RBD L452R E484Q (Acro) (SARS-CoV-2, UniProt P0DTC2 319-537).
T3 construct: domain: S1 RBD; also called SARS-COV-2 RBD India Var; L452R E484Q S1; India variant mutation L452R E484Q
The test can be described thus: Carterra SPR.

The target in test [4] is T1, Antibody 178-09_His B.1.1.7 (27080). The test can be described thus: Carterra SPR. This is another data set of the same source.
Test [5] addresses T2, Antibody 178-10_His …. The test can be described thus: Carterra SPR. The source holds these as a separate data set.
The target of test [6] is T3, S1 RBD L452R E484Q (Acro). The test can be described thus: Carterra SPR. The source holds these as a separate data set.
The target in test [7] is T4, Antibody 178-08_His 501.V2 (27079) (SARS-CoV-2, UniProt P0DTC2 14-685).
T4 construct: domain: S1; also called TB178-8
In words: Carterra SPR.

Test [8] addresses T5, SARS-CoV-2 S protein trimer (Alpha B.1.1.7 UK variant) [SPN-C52H6] (SARS-CoV-2, UniProt P0DTC2 16-1213).
T5 construct: also called B.1.1.7 Alpha UK variant
In words: Carterra SPR.

Test [9] concerns the target SARS-CoV-2 S protein trimer [SPN-C52H7] (SARS-CoV-2, UniProt P0DTC2 16-1213). In words: Carterra SPR.
Test [10] concerns the target T6, SARS-CoV-2 S protein trimer (Kappa B.1.617.1 India variant) [SPN-C52Hr] (SARS-CoV-2, UniProt P0DTC2 16-1213).
T6 construct: also called B.1.617.1 Kappa India variant
The test can be described thus: Carterra SPR.

In test [11] the target is T7, SARS-CoV-2 S protein trimer (Delta B.1.617.2 India variant) [SPN-C52He] (SARS-CoV-2, UniProt P0DTC2 16-1213).
T7 construct: also called B.1.617.2 Delta India variant [SPN-C52he]
The test can be described thus: Carterra SPR.

Test [12] addresses T8, SARS-CoV-2 S1 [S1N-C52H4] (SARS-CoV-2, UniProt P0DTC2 16-685).
T8 construct: domain: S1
In words: Carterra SPR.

Test [13] concerns the target SARS-CoV-2 S protein trimer (P.1 Gamma Brazil variant) [SPN-C52Hg] (SARS-CoV-2, UniProt P0DTC2 16-1213). The test can be described thus: Carterra SPR.
In test [14] the target is T9, SARS-CoV-2 S protein trimer (Beta B.1.351 SA variant) [SPN-C52Hk] (SARS-CoV-2, UniProt P0DTC2 16-1213).
T9 construct: also called B.1.351 Beta SA variant
In words: Carterra SPR.

Test [15] deals with T4, Antibody 178-08_His 501.V2 (27079). In words: Carterra SPR. The source holds these as a separate data set.
Test [16] deals with T9, SARS-CoV-2 S protein trimer (Beta …). In words: binding kinetics, Carterra SPR.
The target in test [17] is SARS-CoV-2 S protein trimer [SPN-C52H9] (SARS-CoV-2, UniProt P0DTC2 16-1213). The test can be described thus: binding kinetics, Carterra SPR.
Test [18] concerns the target T5, SARS-CoV-2 S protein trimer (Alpha …). In words: binding kinetics, Carterra SPR.
The target in test [19] is T6, SARS-CoV-2 S protein trimer (Kappa …). In words: binding kinetics, Carterra SPR.
Test [20] deals with T7, SARS-CoV-2 S protein trimer (Delta …). In words: binding kinetics, Carterra SPR.

Changes are numbered by the printed parent chain. Where two headings read alike, the source gives them in different places.

B1: 7-09 (VHH)
VHH: EVQLVESGGGLVQPGGSLRLSCAASGGTFSSIGMGWFRQAPGKEREFVAAISWDGGATAYADSVKGRFTISADNSKNTAYLQMNSLKPEDTAVYYCAKEDVGKPFDWGQGTLVTVSS
notes: also called 7-9
As for B1, the Kd was determined as 23.2 nM in test [1]; 38.7 nM in [2]; 177000 nM in test [3]; 23.2 nM in test [4]; 38.7 nM in test [5]; 177000 nM in [6]. For the same molecule, in test [7], the binding result was “no binding”.

B2: 7-14 (VHH)
VHH: EVQLVESGGGLVQPGGSLRLSCAASGSTFSINAMGWFRQAPGKEREFVAGISRGGTTNYADSVKGRFTISADNSKNTAYLQMNSLKPEDTAVYYCAADGVPEYSDYASGPVWGQGTLVTVSS
Turning to B2, the dissociation constant Kd was 0.0128 nM in [8]; not above 0.0142 nM in [9]; 0.012 nM in [10]; 0.0122 nM in test [11]; 12.4 nM in test [12]; 0.0185 nM in test [13]. The dissociation constant (Kd) was determined as 0.0171 nM in test [14]; 19.2 nM in [1]; 43.1 nM in test [2]; 20.1 nM in test [3]; 16.9 nM in [15]; 0.00853 nM in test [16]. In addition, the Kd in test [17] is not above 0.0105 nM; in test [18], not above 0.00862 nM; in test [19], not above 0.0083 nM; in [20], not above 0.00994 nM; in [4], 19.2 nM; in test [5], 43.1 nM. Further, the dissociation constant (Kd) in test [6] worked out at 20.1 nM; in [7], 16.9 nM. The koff in test [8] is 1e-05 s⁻¹; in test [9] it was not above 1e-05 s⁻¹; in test [10], 1e-05 s⁻¹; in test [11] it was 1e-05 s⁻¹; in test [12], 0.000464 s⁻¹; in test [13] it was 1.62e-05 s⁻¹. Besides, the dissociation rate constant (koff) in test [14] was 1.6e-05 s⁻¹; in test [16] it was 1.05e-05 s⁻¹; in test [17], not above 1e-05 s⁻¹; in [18], not above 1e-05 s⁻¹; in [19], not above 1e-05 s⁻¹; in [20], not above 1e-05 s⁻¹. Besides, the kon in test [8] came out at 782000 M⁻¹ s⁻¹; in [9], 703000 M⁻¹ s⁻¹; in [10], 835000 M⁻¹ s⁻¹; in test [11], 818000 M⁻¹ s⁻¹; in test [12], 37400 M⁻¹ s⁻¹; in [13] it was 877000 M⁻¹ s⁻¹. Also, the kon was determined as 931000 M⁻¹ s⁻¹ in test [14]; 1.23e+06 M⁻¹ s⁻¹ in [16]; 954000 M⁻¹ s⁻¹ in test [17]; 1.16e+06 M⁻¹ s⁻¹ in test [18]; 1.2e+06 M⁻¹ s⁻¹ in test [19]; 1.01e+06 M⁻¹ s⁻¹ in test [20].

B3: 7-26 (VHH)
VHH: EVQLVESGGGLVQPGGSLRLSCAASGSTFSINAMGWFRQAPGKEREFVAGITSSGGYTNYADSVKGRFTISADNSKNTAYLQMNSLKPEDTAVYYCAADGVPEYSDYASGPVWGQGTLVTVSS
Turning to B3, the equilibrium dissociation constant (Kd) in [1] turned out to be 22.7 nM; in [2] it was 34.8 nM; in [15], 74.9 nM; in [4], 22.7 nM; in [5], 34.8 nM; in test [7], 74.9 nM.

B4: 3-31 (VHH)
VHH: B3 VHH
notes: also called 3-31_ExpiCHO
In the case of B4, the equilibrium dissociation constant (Kd) came to 4.12 nM in [12]; 16.1 nM in test [1]; 41 nM in [2]; 96700 nM in test [15]; 16.1 nM in test [4]; 41 nM in test [5]. Moreover, the dissociation constant (Kd) in test [7] was 96700 nM.

B5: 7-37 (VHH)
VHH: B3 VHH with F29L, S53R, G56S, Y57V
For the molecule B5, the dissociation constant Kd in test [8] turned out to be 0.0201 nM; in test [9], 0.026 nM; in test [10], 0.0276 nM; in [11], 0.0191 nM; in test [12] it was 20.8 nM; in [13], 0.0322 nM. The equilibrium dissociation constant (Kd) was determined as 0.03 nM in test [14]; 17.8 nM in test [1]; 45.1 nM in test [2]; 58.5 nM in test [3]; 123 nM in [15]; 0.0224 nM in [16]. Also, the dissociation constant Kd in [17] was not above 0.0118 nM; in test [18], 0.0131 nM; in [19], 0.0171 nM; in test [20] it was not above 0.0102 nM; in test [4], 17.8 nM; in [5], 45.1 nM. Besides, the values for the Kd in test [6] and in test [7] were 58.5 nM and 123 nM, respectively. Further, the koff is 1.52e-05 s⁻¹ in test [8]; 1.77e-05 s⁻¹ in [9]; 2.38e-05 s⁻¹ in test [10]; 1.62e-05 s⁻¹ in test [11]; 0.000651 s⁻¹ in test [12]; 2.92e-05 s⁻¹ in test [13]. Moreover, the dissociation rate constant (koff) in test [14] was 2.83e-05 s⁻¹; in test [16] it was 2.3e-05 s⁻¹; in test [17] it was not above 1e-05 s⁻¹; in test [18] it was 1.15e-05 s⁻¹; in test [19], 1.67e-05 s⁻¹; in test [20] it was not above 1e-05 s⁻¹. Also, the kon in [8] is 757000 M⁻¹ s⁻¹; in test [9], 680000 M⁻¹ s⁻¹; in test [10], 862000 M⁻¹ s⁻¹; in test [11], 844000 M⁻¹ s⁻¹; in test [12], 31400 M⁻¹ s⁻¹; in test [13], 906000 M⁻¹ s⁻¹. The kon stood at 944000 M⁻¹ s⁻¹ in test [14]; 1.03e+06 M⁻¹ s⁻¹ in test [16]; 844000 M⁻¹ s⁻¹ in test [17]; 875000 M⁻¹ s⁻¹ in [18]; 977000 M⁻¹ s⁻¹ in test [19]; 978000 M⁻¹ s⁻¹ in test [20].

The Kd is the concentration at which binding is half-saturated. A word on the koff: it is the rate constant with which the complex falls apart. A lower koff goes with slow dissociation. As a reminder, the kon is the rate constant with which the complex forms. Read a low kon as slow association.
